Reference: US20130171170A1 (published 2013)
Values joined by “and” are separate entries in the source; they are usually repeats but may differ in a detail not shown here. Identical values can stand only once.

Assays:
[1] = molecular target: T1, human CD22-beta-ECD-His tagged soluble antigen (human, UniProt P20273 22-681); experiment: SPR (BIACORE 3000), antibody coupled to the chip, soluble CD22-beta-ECD-His injected, 25 C
T1 construct: also called soluble CD22 extracellular domain (ECD); Soluble Human CD22
T1 sequence: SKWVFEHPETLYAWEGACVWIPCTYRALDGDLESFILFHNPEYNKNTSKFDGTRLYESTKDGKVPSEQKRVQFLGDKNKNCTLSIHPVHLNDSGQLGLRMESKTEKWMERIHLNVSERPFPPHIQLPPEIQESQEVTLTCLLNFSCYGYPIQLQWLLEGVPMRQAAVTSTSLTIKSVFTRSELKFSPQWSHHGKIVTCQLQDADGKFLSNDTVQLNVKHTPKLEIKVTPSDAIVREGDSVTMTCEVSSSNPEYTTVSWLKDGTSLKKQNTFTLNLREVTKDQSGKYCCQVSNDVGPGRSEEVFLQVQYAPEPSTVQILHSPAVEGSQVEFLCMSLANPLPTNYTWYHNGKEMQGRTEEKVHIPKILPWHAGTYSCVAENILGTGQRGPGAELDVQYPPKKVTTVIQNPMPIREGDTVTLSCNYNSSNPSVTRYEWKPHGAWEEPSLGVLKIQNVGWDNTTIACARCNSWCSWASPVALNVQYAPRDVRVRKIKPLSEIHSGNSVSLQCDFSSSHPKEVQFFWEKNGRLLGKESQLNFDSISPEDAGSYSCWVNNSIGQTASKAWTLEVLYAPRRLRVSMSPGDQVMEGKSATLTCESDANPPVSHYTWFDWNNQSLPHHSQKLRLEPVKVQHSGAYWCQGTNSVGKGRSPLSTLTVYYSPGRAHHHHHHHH
Protocol: The binding affinity of murine and humanized 10F4 antibody for soluble CD22 extracellular domain (ECD) was determined by surface plasmon resonance measurement using a BIACORE® 3000 system (Biacore, Inc., Piscataway, N.J.). Briefly, carboxymethylated dextran biosensor chips (CMS, Biacore Inc.) were activated with N-ethyl-N′-(3-dimethylaminopropyl)-carbodiimide hydrochloride (EDC) and N-hydroxysuccinimide (NHS) according to the supplier's instructions. These activated chips were coated with anti-CD22 IgG1 antibody 10F4 (murine or humanized) by dilution to 5 μg/ml with 10 mM sodium acetate, pH 4.8, before injection at a flow rate of […] to achieve approximately 500 response units (RU) of coupled antibody. Next, 1M ethanolamine was injected to block unreacted groups. […] Association rates (kₒₙ) and dissociation rates (koff) were calculated using a simple one-to-one Langmuir binding model (BIAevaluation Software version 3.2). The equilibrium dissociation constant (Kd) was calculated as the ratio koff/kₒₙ. Anti-CD22 antibody, RFB4, was used as a control (Chemicon International, Inc., Temecula, Calif., catalog no. CBL147).

[2] = molecular target: T2, cynomolgus monkey (cyno) CD22 expressed on the surface of CHO cells (cynomolgus monkey); experiment: cell-based competitive binding of 125I-labelled against unlabelled antibody on CHO cells, Scatchard analysis; repeated assays
T2 construct: residues 1-19 (signal) should be removed
T2 chain: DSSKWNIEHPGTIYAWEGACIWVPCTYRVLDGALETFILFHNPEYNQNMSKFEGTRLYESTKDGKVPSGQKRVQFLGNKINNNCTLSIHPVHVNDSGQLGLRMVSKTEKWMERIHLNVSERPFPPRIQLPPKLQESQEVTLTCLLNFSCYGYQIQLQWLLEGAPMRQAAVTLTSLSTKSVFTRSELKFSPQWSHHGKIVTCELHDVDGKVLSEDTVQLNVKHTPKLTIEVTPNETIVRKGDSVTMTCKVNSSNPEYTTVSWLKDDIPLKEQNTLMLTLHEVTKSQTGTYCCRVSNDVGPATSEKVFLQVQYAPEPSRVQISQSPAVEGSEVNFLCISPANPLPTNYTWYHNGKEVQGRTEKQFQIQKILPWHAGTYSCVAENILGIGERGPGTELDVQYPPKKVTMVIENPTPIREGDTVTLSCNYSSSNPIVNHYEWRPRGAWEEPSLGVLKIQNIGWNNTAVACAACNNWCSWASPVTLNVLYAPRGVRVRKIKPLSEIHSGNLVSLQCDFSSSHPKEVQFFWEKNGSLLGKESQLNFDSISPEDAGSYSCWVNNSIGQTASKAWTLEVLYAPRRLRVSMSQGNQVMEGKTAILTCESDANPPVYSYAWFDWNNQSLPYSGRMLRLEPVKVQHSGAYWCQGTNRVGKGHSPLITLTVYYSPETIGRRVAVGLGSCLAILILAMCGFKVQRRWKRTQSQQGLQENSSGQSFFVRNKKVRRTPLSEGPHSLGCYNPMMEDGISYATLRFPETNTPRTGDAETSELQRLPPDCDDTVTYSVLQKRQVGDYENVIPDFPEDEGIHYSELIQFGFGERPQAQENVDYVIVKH
Protocol: (§1) Briefly, CHO cells stably expressing full length human CD22 (SEQ ID NO:27) or cynomolgus monkey (cyno) CD22 (SEQ ID NO:31). […] A cell-based, competitive binding assay was performed using serially diluted, unlabeled anti-CD22 antibody. Antibodies were allowed to bind to the cells for 4 hours at 4° C. Binding affinity, KD, of the antibodies was determined in accordance with standard Scatchard analysis performed utilizing a non-linear curve fitting program (see, for example, Munson et al., Anal Biochem, 107: 220-239, 1980).

[3] = molecular target: T2, cynomolgus monkey (cyno) CD22 expressed …; experiment: cell-based competitive binding of 125I-labelled against unlabelled antibody on CHO cells, 4 h at 4 C, Scatchard analysis
Protocol: as §1

[4] = molecular target: T3, CD22 expressed on the surface of BJAB-lucs cells (human, UniProt P20273 20-847); experiment: FACS on BJAB-lucs cells; biotinylated goat anti-huFc plus Streptavidin-PE
T3 construct: whole, on cells; also called CD22 expressed on BJAB-lucs cells
T3 sequence (looked up): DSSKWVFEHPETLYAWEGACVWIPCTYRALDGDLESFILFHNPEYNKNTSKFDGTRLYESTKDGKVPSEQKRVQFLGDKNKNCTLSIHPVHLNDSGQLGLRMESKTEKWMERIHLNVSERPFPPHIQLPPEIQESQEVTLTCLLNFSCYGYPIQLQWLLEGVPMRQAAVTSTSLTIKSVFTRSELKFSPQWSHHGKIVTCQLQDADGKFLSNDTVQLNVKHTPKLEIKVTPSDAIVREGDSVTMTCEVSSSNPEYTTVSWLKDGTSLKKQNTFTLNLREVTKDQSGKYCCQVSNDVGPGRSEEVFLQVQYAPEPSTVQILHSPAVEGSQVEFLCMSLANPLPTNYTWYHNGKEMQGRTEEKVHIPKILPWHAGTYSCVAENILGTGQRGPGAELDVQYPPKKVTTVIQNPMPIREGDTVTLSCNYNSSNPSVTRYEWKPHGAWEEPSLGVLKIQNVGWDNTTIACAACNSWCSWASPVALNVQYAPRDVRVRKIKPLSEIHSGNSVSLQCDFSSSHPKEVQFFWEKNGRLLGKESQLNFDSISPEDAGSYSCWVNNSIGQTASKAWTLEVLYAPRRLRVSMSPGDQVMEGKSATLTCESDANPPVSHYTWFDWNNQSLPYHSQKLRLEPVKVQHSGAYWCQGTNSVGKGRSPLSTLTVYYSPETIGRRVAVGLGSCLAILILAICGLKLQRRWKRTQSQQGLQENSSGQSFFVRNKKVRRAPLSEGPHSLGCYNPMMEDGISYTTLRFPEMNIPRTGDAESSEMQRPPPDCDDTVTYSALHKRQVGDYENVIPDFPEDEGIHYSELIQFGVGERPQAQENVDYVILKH
From the text: Anti-CD22 antibody bound to the cell surface was detected using biotinylated goat anti-huFc plus Streptavidin-PE.

B1: Chimeric 10F4 (antibody, V domains shown)
VH: QVQLQQSGPELVKPGASVKISCKASGYEFSRSWMNWVKQRPGQGREWIGRIYPGDGDTNYSGKFKGKATLTADKSSSTAYMQLSSLTSVDSAVYFCARDGSSWDWYFDVWGAGTTVTVSS
VL: DILMTQTPLSLPVSLGDQASISCRSSQSIVHSNGNTFLEWYLQKPGQSPKLLIYKVSNRFSGVPDRFSGSGSGTDFTLKISRVEAEDLGVYYCFQGSQFPYTFGGGTKVEIK
notes: also called murine chimeric 10F4
Kd [1]: 16 nM
koff [1]: 0.00042 s⁻¹
kon [1]: 26000 M⁻¹ s⁻¹

B2: humanized 10F4 version 1 antibody (antibody, IgG1, V domains shown)
VH: EVQLVESGGGLVQPGGSLRLSCAASGYEFSRSWMNWVRQAPGKGLEWVGRIYPGDGDTNYSGKFKGRFTISADTSKNTAYLQMNSLRAEDTAVYYCARDGSSWDWYFDVWGQGTLVTVSS
VL: DIQMTQSPSSLSASVGDRVTITCRSSQSIVHSNGNTFLEWYQQKPGKAPKLLIYKVSNRFSGVPSRFSGSGSGTDFTLTISSLQPEDFATYYCFQGSQFPYTFGQGTKVEIKR
notes: only variable domains are tied to v1; also called humanized 10F4v1; hu10F4v1
Kd [2]: 1.4 nM and 1.8 nM

B3: humanized 10F4 version 2 antibody (antibody, human IgG1, kappa)
heavy: not shown
light: DIQMTQSPSSLSASVGDRVTITCRSSQSIVHSVGNTFLEWYQQKPGKAPKLLIYKVSNRFSGVPSRFSGSGSGTDFTLTISSLQPEDFATYYCFQGSQFPYTFGQGTKVEIKRTVAAPSVFIFPPSDEQLKSGTASVVCLLNNFYPREAKVQWKVDNALQSGNSQESVTEQDSKDSTYSLSSTLTLSKADYEKHKVYACEVTHQGLSSPVTKSFNRGEC
notes: Differs from hu10F4v1 by N28V (Kabat) in HVR-L1; Mature protein identical to hu10F4v3; also called humanized 10F4v2; hu10F4v2
Kd [3]: 2.1 nM

B4: thio hu LC(V205C) 10F4v3-MCvcPAB-MMAE (antibody, human IgG1, kappa)
heavy: not shown
light: DIQMTQSPSSLSASVGDRVTITCRSSQSIVHSVGNTFLEWYQQKPGKAPKLLIYKVSNRFSGVPSRFSGSGSGTDFTLTISSLQPEDFATYYCFQGSQFPYTFGQGTKVEIKRTVAAPSVFIFPPSDEQLKSGTASVVCLLNNFYPREAKVQWKVDNALQSGNSQESVTEQDSKDSTYSLSSTLTLSKADYEKHKVYACEVTHQGLSSPCTKSFNRGEC
modifications: MC-val-cit-PAB-MMAE on the engineered Cys at Kabat position 205 (sequential position 210)
notes: Cysteine engineered IgG1 (ThioMab) drug conjugate; also called thio hu LC-10F4v3-MC-val-cit-PAB-MMAE; Thio 10F4v3-LC(V205C)-MCvcPAB-MMAE
binding result [4]: binds
